Measurements as given in paper PMC8217500, “Sequence signatures of two public antibody clonotypes that bind SARS-CoV-2 receptor binding domain” (Nature Communications, 2021).

Columns and labels:
Conditions in all cases: both partners purified
[1] = target: T1, Fc-tagged SARS-CoV-2 RBD (SARS-CoV-2, Wuhan-Hu-1 (QHD43416.1), UniProt P0DTC2); assay: BLI; Octet Red96e, room temperature; Fc-tagged RBD (20 μg/ml) loaded on anti-hIgG Fc Capture (AHC) biosensors, Fab in solution; 1× kinetics buffer (1× PBS pH 7.4, 0.01% BSA, 0.002% Tween 20); 60 s association, 60 s dissociation; 1:1 binding model
T1 construct: also called SARS-CoV-2 S RBD-Fc; not shown: Fc, C-terminal, kept

[2] = target: T2, Fc-tagged SARS-CoV-2 receptor-binding domain (RBD), wild type (SARS-CoV-2, Wuhan-Hu-1 (QHD43416.1), UniProt P0DTC2); assay: BLI; Fc-tagged RBD (20 ug/ml) loaded on anti-hIgG Fc Capture (AHC) biosensors, Fab in solution at four to five concentrations; Octet Red96e, room temperature, 1x kinetics buffer (1x PBS pH 7.4, 0.01% w/v BSA, 0.002% v/v Tween 20); 1:1 binding model
T2 construct: also called SARS-CoV-2 RBD; WT RBD; not shown: Fc, C-terminal, kept

[3] = target: T3, Fc-tagged SARS-CoV-2 spike receptor-binding domain (RBD) (SARS-CoV-2, Wuhan-Hu-1 (QHD43416.1), UniProt P0DTC2); assay: BLI; Fc-tagged RBD (20 ug/ml) loaded on anti-hIgG Fc Capture (AHC) biosensors, Fab in solution; room temperature; 1x PBS pH 7.4, 0.01% BSA, 0.002% Tween 20; 1:1 binding model
T3 construct: also called SARS-CoV-2 RBD; Fc-tagged RBD; source: Expi293F, transiently transfected, purified (KanCapA protein A resin); not shown: Fc (after an SSSSG linker), C-terminal, kept

B1: COV107-23 Fab (Fab, V domains shown)
VH: EVQLVESGGGLIQPGGSLRLSCAASGFTVSSNYMSWVRQAPGKGLEWVSVIYSGGSTFYADSVKGRFTISRDNSKNTLYLQMNSLRAEDTAVYYCARDLGTGLFDYWGQGTLVTVSS
VL: DIQLTQSPSFLSASVGDRVTITCRASQGISSYLAWYQQKPGKAPKLLIYAASTLQSGVPSRFSGSGSGTEFTLTISSLQPEDFATYYCQQLDSYPPGTFGPGTKVDIK
notes: also called wild-type (WT) COV107-23; source: Expi293F, transiently co-transfected, purified (CaptureSelect CH1-XL column)
- Kd [1]: 1 nM

B2: COVA2-20 Fab, wild type (Fab, V domains shown)
VH: EVQLVESGGGLIQPGGSLRLSCAASGFTVSSNYMSWVRQAPGKGLEWVSVIYSGGSTYYADSVKGRFTISRDNSKNTLYLQMNSLRAEDTAVYYCASPLLLTPPDYYYYMDVWGKGTMVTVSS
VL: DVVMTQSPSSLSVSVGDRVTITCRASQGIRNDLGWYQQKPGKAPKRLIYAASSLQSGVPSRFSGSGSGTEFTLTISSLQPEDFATYYCLQHNSYLWTFGQGTKLEIK
- Kd [2]: 304 ± 20 nM

B3: COVA2-20 Fab, Y58 (wild type) (Fab, V domains shown)
VH: EVQLVESGGGLIQPGGSLRLSCAASGFTVSSNYMSWVRQAPGKGLEWVSVIYSGGSTYYADSVKGRFTISRDNSKNTLYLQMNSLRAEDTAVYYCASPLLLTPPDYYYYMDVWGKGTMVTVSS
VL: DVVMTQSPSSLSVSVGDRVTITCRASQGIRNDLGWYQQKPGKAPKRLIYAASSLQSGVPSRFSGSGSGTEFTLTISSLQPEDFATYYCLQHNSYLWTFGQGTKLEIK
- Kd [3]: 304 nM
